Assay results published in PMC8496131, “Accessing Chemo- and Regioselective Benzylic and Aromatic Oxidations by Protein Engineering of an Unspecific Peroxygenase” (ACS Catalysis, 2021).
Residue numbers refer to the chain shown, from its start. Numbers in names are those of the source.

B1: MthUPO (Thermothelomyces thermophilus ATCC 42464) (protein)
chain: AGFDTWSPPGPYDVRAPCPMLNTLANHGFLPHDGKDITREQTENALFEALHINKTLASFLFDFALTTNPKNTSTFSLNDLGNHNILEHDASLSRADAYFGNVLQFNQTVFDETKTYWEGDTIDLRMAAKARLGRIKTSQATNPTYSMSELGDAFTYGESAAYVVVLGDKESRTVKRSWVEWFFEHEQLPQHLGWKRPAASFEEEDLNSSMEEIEKYTKELEGSNSTSGSQKHRRRLPRRRAHFGF
notes: secreted from S. cerevisiae, purified; 245 AA plus C-terminal TwinStrep-GFP11 tag; heme-thiolate
B2: MthUPO (Thermothelomyces thermophilus ATCC 42464; F75Q/L76F/S175G) (protein)
chain: B1 chain with F59Q, L60F, S159G
notes: as for B1
B3: MthUPO (Thermothelomyces thermophilus ATCC 42464; F170A/F75Q/L76M/S175G) (protein)
chain: B1 chain with F59Q, L60M, F154A, S159G
notes: as for B1
B4: MthUPO (Thermothelomyces thermophilus ATCC 42464; A177F/L76F/S175G) (protein)
chain: B1 chain with L60F, S159G, A161F
notes: as for B1
B5: MthUPO (Thermothelomyces thermophilus ATCC 42464; L76F) (protein)
chain: B1 chain with L60F
notes: as for B1

Substrate: O=[N+]([O-])c1ccc2c(c1)OCO2
Assay: purified protein
Type: biochemical, Thermothelomyces thermophilus
Settings: H2O2 as saturating co-substrate, standard deviation <18%

| Protein | Km (20 nM enzyme) | kcat (20 nM enzyme) | kcat/Km (20 nM enzyme) | Km (5 nM enzyme) | kcat (5 nM enzyme) | kcat/Km (5 nM enzyme) |
| --- | --- | --- | --- | --- | --- | --- |
| B1 | 386 µM | 7.1 s⁻¹ | 19000 M⁻¹ s⁻¹ |  |  |  |
| B2 | 303 µM | 47 s⁻¹ | 160000 M⁻¹ s⁻¹ |  |  |  |
| B3 | 290 µM | 59.4 s⁻¹ | 210000 M⁻¹ s⁻¹ |  |  |  |
| B4 | 422 µM | 132 s⁻¹ | 310000 M⁻¹ s⁻¹ |  |  |  |
| B5 |  |  |  | 110 µM | 2.9 s⁻¹ | 27000 M⁻¹ s⁻¹ |
